These results are taken from patent publication WO2011104307A2.

This test has as its target host cell proteins. The experiment in a line: microtiter plate column chromatography, Bradford assay; fraction of injected protein bound.

With “rProtein A Sepharose FF (from UniProt P38507 37-327)”, the Bound came to 0%.
